Values joined by “and” are separate entries in the source; they are usually repeats but may differ in a detail not shown here. Equal entries are not always repeated.
How the values were obtained:
Q12527 [1] = assay: SEC; Superose 6 Increase 10/300 GL, 20 mM Tris pH 8.0, 300 mM NaCl, 1 mM DTT; mass estimated from globular standards
[2] = target: the molecule itself; assay: AUC; sedimentation velocity, 42 000 r.p.m., 20 °C; full-length Atg11 at 0.65 mg/mL in 20 mM Tris pH 8.0, 300 mM NaCl, 1 mM DTT; c(s) by SEDFIT
Q12527 [3] = assay: SEC; Superdex 200 Increase 10/300 GL, 20 mM Tris pH 8.0, 150 mM NaCl; mass estimated from globular standards
[4] = target: the molecule itself; assay: AUC; sedimentation velocity, 36 000 r.p.m., 20 °C; Atg11_N at 0.61 mg/mL and Atg11_C at 0.92 mg/mL in 20 mM Tris pH 8.0, 150 mM NaCl; c(s) by SEDFIT

B1: full-length S. cerevisiae Atg11 (residues 1-1178) (natural protein, UniProt Q12527 1-1178, looked up)
chain: MADADEYSTAPTQQEITPLQTTATIINAISGECITTNVDFFVSLDKFKQFIARKWKIPPDQLLILLPYGNKLKPSMFKELLINRSFTLNDFYVYDRRLFSLVSKPTPTNLLTSKDSNPMNSPNSNDLTETLEYLIKNSHISQYQGSDTIMIKPMPSPLEDADVDLSRLNYHSVTSLLTTNLGWLSALEIDVHYFKSLIPDIIAHIKRIFDGLTVCSQYLKLYCFDVESLYNSNVQFLNQLVDNGMTSKWEKCFNDTLSKLTALEGDSLQKFINIESLLENEKSVKILNHSINGKLNKIKREIDENASFRDIITVNIDRLRQMFTPNESKFELEDQMAESFEVLVSEMRTRSRNVLDKEEEEFNSQEFLKSMNVMLEKDKKESVKTLFTISQALYSQIGELIDLKKSLQKHAVAILGNIAFTQMEILGIKRLLLNECNKDLELYKKYEVEFAQVEDLPLIYGLYLIEKYRRLSWFQQILSFISNFNQDLELFKQNELRTRNKWVKNFGSIATVFCEDLLSSSDFKRLNEYHSHTSPPNEDEEDENENSIANYRQDLVKVSQAIDNYMTQIKETDVSEPIIDLLSKTLFETKRFHIIYSNFKNNNNNSSNGNSISPEGSIALKSDDVVKGYKTRIKKLESLLHEFQYSDIGHWPQGVLNTHLKPFRGSATSINKKKFLGASVLLEPANISEVNIDSVSQANNHQIQELESNVDDLLHQLQLLKEENNRKSMQISEMGKKISDLEVEKTAYRETLTNLNQELARLTNEEQSHRTEIFTLNASFKKQLNDIISQDNEKIEKLTGDYDDVSKSRERLQMDLDESNKKHEQEVNLLKADIERLGKQIVTSEKSYAETNSSSMEKGEKFETIPLAEDPGRENQISAYTQTLQDRIFDIISTNIFILENIGLLLTFDNNNNIQIRRVKGLKKGTAQSNILDESTQMLDAHDNSLIKSPVFQKLKDEYELIKSVANGSEKDTQQSIFLGNITQLYDNKLYEVAVIRRFKDIETLAKKLTKENKIKRTLLERFQREKVTLRNFQIGDLALFLPTRENVNSVGSMSSSTSSLSSSFSSVDLSTPPPLDAMSIQSSPSVIHSNVINQASISGRDKNKLMRPWAAFTAFEESTRYFLKDEKGLTKGKEWFVGRIVTLEHFVADSPSNNPFRLPKGSVWFQVTAVVVSYQGV
notes: Atg11, Saccharomyces cerevisiae, residues 1-1178 (1178 amino acids, 135 kDa); C terminus carried an HRV3C protease site followed by FLAG and 6x His tags; Residues of the HRV3C site may remain at the C terminus; also called full-length Atg11; source: High Five insect cells, baculovirus expression system, purified (Talon, HiTrap Q, HRV3C cleavage, Superose6 Increase); not shown: FLAG, C-terminal, …
- copies from the apparent SEC mass (globular standards) (Q12527 [1]): 8–9 copies of Atg11
- stoichiometry N [2]: 1.6 copies

B2: N-terminal region of Atg11 (residues 1-646) (protein)
chain: MADADEYSTAPTQQEITPLQTTATIINAISGECITTNVDFFVSLDKFKQFIARKWKIPPDQLLILLPYGNKLKPSMFKELLINRSFTLNDFYVYDRRLFSLVSKPTPTNLLTSKDSNPMNSPNSNDLTETLEYLIKNSHISQYQGSDTIMIKPMPSPLEDADVDLSRLNYHSVTSLLTTNLGWLSALEIDVHYFKSLIPDIIAHIKRIFDGLTVCSQYLKLYCFDVESLYNSNVQFLNQLVDNGMTSKWEKCFNDTLSKLTALEGDSLQKFINIESLLENEKSVKILNHSINGKLNKIKREIDENASFRDIITVNIDRLRQMFTPNESKFELEDQMAESFEVLVSEMRTRSRNVLDKEEEEFNSQEFLKSMNVMLEKDKKESVKTLFTISQALYSQIGELIDLKKSLQKHAVAILGNIAFTQMEILGIKRLLLNECNKDLELYKKYEVEFAQVEDLPLIYGLYLIEKYRRLSWFQQILSFISNFNQDLELFKQNELRTRNKWVKNFGSIATVFCEDLLSSSDFKRLNEYHSHTSPPNEDEEDENENSIANYRQDLVKVSQAIDNYMTQIKETDVSEPIIDLLSKTLFETKRFHIIYSNFKNNNNNSSNGNSISPEGSIALKSDDVVKGYKTRIKKLESLLHEFQYS
- copies from the apparent SEC mass (globular standards) (Q12527 [3]): 6 and 7–8 copies of each protein, respectively

B3: C-terminal region of Atg11 (residues 700-1178) (domain or fragment, S. cerevisiae, UniProt Q12527 700-1178, looked up)
chain: NHQIQELESNVDDLLHQLQLLKEENNRKSMQISEMGKKISDLEVEKTAYRETLTNLNQELARLTNEEQSHRTEIFTLNASFKKQLNDIISQDNEKIEKLTGDYDDVSKSRERLQMDLDESNKKHEQEVNLLKADIERLGKQIVTSEKSYAETNSSSMEKGEKFETIPLAEDPGRENQISAYTQTLQDRIFDIISTNIFILENIGLLLTFDNNNNIQIRRVKGLKKGTAQSNILDESTQMLDAHDNSLIKSPVFQKLKDEYELIKSVANGSEKDTQQSIFLGNITQLYDNKLYEVAVIRRFKDIETLAKKLTKENKIKRTLLERFQREKVTLRNFQIGDLALFLPTRENVNSVGSMSSSTSSLSSSFSSVDLSTPPPLDAMSIQSSPSVIHSNVINQASISGRDKNKLMRPWAAFTAFEESTRYFLKDEKGLTKGKEWFVGRIVTLEHFVADSPSNNPFRLPKGSVWFQVTAVVVSYQGV
notes: Atg11, Saccharomyces cerevisiae, residues 700-1178 (55 kDa); Expressed from a modified pMAL-c2E vector as an MBP fusion with an HRV3C site; MBP was cleaved off; A few residues of the site may remain; also called Atg11_C; source: E. coli BL21(DE3), purified (Amylose, HRV3C cleavage, SP-Sepharose, Superdex 200)
- copies from the apparent SEC mass (globular standards) (Q12527 [3]): 6 and 7–8 copies of each protein, respectively
- stoichiometry N [4]: 2.1 copies

Source: PMC5757174, “Biophysical characterization of Atg11, a scaffold protein essential for selective autophagy in yeast” (FEBS Open Bio, 2017)
